Residue numbers refer to the chain shown, from its start. Numbers in names are those of the source.
B1: YfkE (Bacillus subtilis subsp. subtilis str. 168) (protein)
chain: MNRIFFILVAAGVPLSVIGSLMHWPSAVLFAVYCVTIIALASYMGRATESLSIIAGPRIGGLLNATFGNAVELIISLFALKEGLTGIVLASLTGSVLGNLLLVAGLSFFVGGLKYKRQEFNIHDARHNSGLLIFAIIVAFVIPEVFSVGMGNASKLNLSIGISIIMILLYVAALYFKLVTHRGVYQPNNAAQTEEEEEPEWSGKVATIVLFAATIVVAYISENLVHTFHSVAEQFGWSELFIGVIIVAIVGNAAEHASAIIMAFKNKMDIAVEIAVGSTLQIAMFVAPVLVICSIFFPTSMPLVFTLPELVAMVSAVLLMIAISNDGDSNWFEGATLLAAYVIMAIGFFLL
B2: YfkE (Bacillus subtilis subsp. subtilis str. 168; N99A) (protein)
chain: B1 chain with N99A
B3: YfkE (Bacillus subtilis subsp. subtilis str. 168; N252A) (protein)
chain: B1 chain with N252A
B4: YfkE (Bacillus subtilis subsp. subtilis str. 168; Q281A) (protein)
chain: B1 chain with Q281A
B5: YfkE (Bacillus subtilis subsp. subtilis str. 168; H256A) (protein)
chain: B1 chain with H256A
B6: YfkE (Bacillus subtilis subsp. subtilis str. 168; R3A) (protein)
chain: B1 chain with R3A

Legend:
YfkE = target: T1, YfkE (Bacillus subtilis, UniProt O34840); assay: biochemical
T1 construct: gene chaA

[1] = substrate: O=P(O)(O)O; assay: cells, lysate or membranes; conditions: outward H+ gradient by NADH, room temperature, labelled compound
[2] = co-substrate Ca2+, 5x more vesicles than WT
[3] = co-substrate Ca2+, residue printed R3 in table but R4 in text

| Molecule | Km [1, 2] [mM] | Vmax [1, 2] [µmol/min/mg] | other results |
| --- | --- | --- | --- |
| O=P(O)(O)O [inorganic phosphate] | – | – | Kd (YfkE): 930 ± 360 µM |
| B1 | – | – | Km ([1]; co-substrate Ca2+ 0.1 mM): 4.9 mM |
| B2 | 12.4 | 3.9e-05 | – |
| B3 | 8.2 | 1.9e-05 | – |
| B4 | 29.9 | 1.9e-05 | – |
| B5 | 34.2 | 5.1e-05 | – |
| B6 | – | – | Km [1, 3]: 5.5 mM; Vmax [1, 3]: 7.5e-05 µmol/min/mg |

Reference: publication PMC10227063 (Communications Biology, 2023)
